Here are results for 55 sequences from the supplement of paper PMC12636428.

The subject of the data set is Saccharomyces cerevisiae. As to the kind of experiment: transcriptional activation domain activity (GFP:mCherry ratio, weighted mean of sorted bins, harmonized to initial dataset scale) (arbitrary fluorescence ratio units); higher = stronger transcriptional activation. The note with it: beta-estradiol 1 µM; induction time 4 h. The method, boiled down:
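Protein tiles carrying barcodes and fused to an estradiol-inducible synthetic transcription factor were placed at the URA3 locus of yeast diploids with a GFP reporter. Following 4 hours at 30 °C in SC with 1 uM beta-estradiol, cells were sorted into 8 GFP:mCherry bins, barcodes were sequenced, and tiles with fewer than 50 reads were discarded. Activation activity is given as the read-weighted mean of bin median fluorescence, averaged across barcodes and linearly mapped to the initial dataset scale.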

As to “QQLRIKIDSWSYQYGVDEVIRNRNRNLLIQMYMLLPPARFWLYMKRVRIMLLN”, the “transcriptional activation domain activity” value came to 66500.
Regarding “LELNWAIGGGDLKHRMNKLREFLEEGRRVEVLLGPKKRGRKATPEEAQGVVKA”, the “transcriptional activation domain activity” value came to 34200.
Turning to “SFILLFFYSFILLFFYSFILLFFWFFFCLWILIFSLFYSTIIITIKKRKAHTY”, the “transcriptional activation domain activity” value came to 59300.
The value for “AATTAEPERKKSSKDRKSPEIVSEAKKSKDSPGEVKRSSSKREKEKEKEKSSS” was 37300; that for “KDLNVVEGWEHQGVLRAAANTVKSVRMKESSTGGSQEKVYLKLVESTGHTLQG” was 21200; that for “SFVAYFSALWRGKQHRMTGYPVYDFFMGAELNPRMFGILDFKMFFEVRMPWYI” was 51000.
Turning to “KGEKDKENDKGEKGEGEKKGENRSRRRRGGRGRGSGDKDKEKDKDGGGGAKKA”, the “transcriptional activation domain activity” value stood at 27800.
To “EVKDKVWFLEGVTQVLPQDVDEYSGGGGMHMMLDFLGGGLPSMTTTNFSDFSL” belongs 113000; to “NVQPTANAASANAAAAAAAAASNSYAIPENELLDEDTMNFISSLKNDLSNISN”, 59700.
To “MNQTSCFFPPFFLFSFFFFLFFFPFPHSSSLPSFFFSFPSISPLFTSFSVSSL” belongs 35200.
To “CVGLLCLLDTLHLCFSIHMMYFYLIHNFGNVKAVFDIIWSLKGLGTVQVLLIW” belongs 45200; to “GAAPPPPPPPPARGGGAAPPPPPPPPPARGGAVPPPPPPPPPSGGGPPPPPPP”, 33000.
Take “WPWTFWPWTFWIFWTFWTFGLFGLFGLFGLGLFGLFGLFGPLDFLDFLDLWTF”: the “transcriptional activation domain activity” value was found to be 42000.
As to “ILLMLATGQWRLLIDALVSMSDIEVQFFLRQLALCKLVNWKASIVNGYPSPVE”, the “transcriptional activation domain activity” value amounted to 52400.
To “EADGERRSNGGSAGPRAGRRGGRDRDDRKGKPSKDSKARGEKSSEEKIGSNKE” belongs 47500.
The value for “GAGGAAGGAGAGAGTAATGGNAAGGKASATKPAAGAKSSPAAAAAAAGTRLTG” was 7150; that for “MLLLGYILYLFYYGRYLYGILAFYCFSLLYVTLLPFIFVSARLFLHFTQIGIR” was 53600; that for “AKNLHLHILRHPSKWMKLYFYLWPLIVFYHIPLQSFFDFNAVFMLLQVARFPN” was 50100.
As for “MTLTLHPCAQTQFLTAFYCIYCHLTWRCSLLILINMGLGLIQRYVFPLLTFLF”, the “transcriptional activation domain activity” value was determined as 43400.
The value for “CDSVYLHQDQCAHVLEYCMDATPGLINYIQLYFCSPIKPFIFLIMCCWLLFLF” was 51500; that for “FCFFLFLLSFSSCYFFFLLLFLPLTFSSLLFLPIYFFSSSSSSFFLPFLFVSL” was 43000; that for “EPLFLEAQLIHMINFFETFFHKYETSIDRHNLIRHNALEKYYQGINCGRHMLC” was 95700.
With “TSAVLDLGDERDVADYDVISLAEDYVGRDNRKGQKRAMRLDESGPRMEIKVVK”, the “transcriptional activation domain activity” value was 45400.
To “KAEAEAEAQPIAAAKTPRTRKAAAKPKAAAPSPTPAIPKTQAPTASAPAAPLP” belongs 18300.
For the sequence “LCLERLFPPLMREIFCELGIASQVFQRIVFTAIYRRICGTGPHLAHLEAKALE”, the “transcriptional activation domain activity” value was 30100.
In the case of “LWHLVYEPILKGIHEHLLLLDEIIEIFGPDVEKELFRRVYYYLSLLCMHSGTH”, the “transcriptional activation domain activity” value was 24600.
For the sequence “MLLICMSVWLCALSLCILRCRENFFVLMGDVFFFLASMWYGTVSQFVRRPLFH”, the “transcriptional activation domain activity” value was determined as 48100.
To “FRSGHSFPRKFGFCVEFTYNFISLLFNWFGLVSASIFFFCFSLFLFFVFYVLT” belongs 25000.
The value for “LFFSSFLYFSLSLGAPGNYFFDVTFFFIPYPPLCIASYSLGFFFFFSFFFFFS” was 70900.
The value for “MGFASFRKESFCRIGTKELMCARMCLLCPLARSLIFMVLRVVLLLSTLLLVFL” was 61900.
As for “RPPVLRLRALTALITVLILLLAAIVVLYRFSERSLLYQTAFIYQAKIPYFNSI”, the “transcriptional activation domain activity” value stood at 24500.
The value for “DATPAAPANGNDGFHEVQHRGRGRGGFQGEGRGGGGYRGRGGRGGEGRGRGRG” was 25800; that for “QLALFRWCAKMCGDVLSARDLVILGCRILLRCLRSYAWDFLFGHLLFALRLVR” was 72000.
The value for “AWWIGLSGGLYGCITLMPIFFHDSPYYAPLSFTAWFLYMESFWYLPFLDLCYL” was 46000.
To “ALNITYLFLGTYGWEYFGSCSVECALVCGRLAFRLSLIPYVLGRTSLLIYFIL” belongs 41000; to “TNLLDRFQTYMERSRFHLLDLLFDFSSHFSAPLMKLAMQHARRWRRFSIFAFW”, 45100; to “MLRCVFFLYCFLLVTFFSSRRVLVCAGAYLSSSYPLMPDCQYWVYFAFLRCFS”, 52400.
As for “LLSVCVGKNCTVPSPLNSFDRSFYPIGCTNLSNDIPGYSFLNDAMSEIHTFGD”, the “transcriptional activation domain activity” value was 82000.
To “VRSLTLEIYFNWLQIIFDSKLQDEFSKLLNYNLITKVDLIINLLESIALRFSD” belongs 51000.
For “KPEPAGEKAEVANGEGAPEGNRRRPSGRGRGRGRGGRGARGGRDAKEEGAEEA”, the “transcriptional activation domain activity” value is 51900.
To “TLGFVGFVTTLKKVTLRRQFGLFCWIHISLFLIVVSSHFIVNSILEGLIWFWL” belongs 74700; to “FSFFFFLFSLFLSFPSFLLPSFLLLFLSFYFSPSYLLLCLFSLIFYKLWPLFL”, 25500; to “MAIGLSACSILFLFSFTCVFFSFLSCLFLHPFFFLSFLFSLSLSLSLFFFFFA”, 66200.
To “MSGFVRLLFTFDFRNVLVDILVLHIPLYLFPLFVLSEEFLLLFSFCLFVFLSF” belongs 31000.
To “RNVEDCAATNGSLVPISMPGGKREENDRRVPRANVSKVIILGSGGLSIGQAGE” belongs 44500; to “QWCIYAMLAYVIGWTISFFFSHLFTCYPITVFIEPYYGNKCVKTVPMFIALLY”, 67700; to “YLIIISFFSFSFYLLIHMQYINPKGHPPLKFYQLIIWRWCATMCAYFFLSLAY”, 62000.
As to “ASEAPKEEPKTESAPEPKQESAPESKKEAPAPAASKPEPPKQVEKKKESSSAP”, the “transcriptional activation domain activity” value stood at 34300.
The value for “QVCTLLGASGGSSFVRGGSYLQGGYGLNTADLWRRNFLVLVGWILFFWLLQTI” was 54800; that for “FGAIFVELYFIMSSIWFSKIYYMFGFLFLCYGLMILTCATVTILMVYFLLCAE” was 60500; that for “ALYSLFIECTLAPMLLKAIKDRVGEITLDFCWRAYKVYLTSICYLWKNVSLII” was 40600.
In the case of “LMGLDELHLRVLSSSSDDPQERLNADKVLKLLTKRRHWVLVVLLLGNVIVNES”, the “transcriptional activation domain activity” value turned out to be 35800.
Regarding “MVMVKIPFLLAFVYLFLVLHSHVLVHSFRNFTSLLVFACLLGVGMWRCVWTQM”, the “transcriptional activation domain activity” value is 58000.
Take “PHTYNVILFLVIHDPEADVINRVKAYVTYVLRTMPKQLRLESFEMVFIRVLHL”: the “transcriptional activation domain activity” value is 54600.
As to “GKRGSRGRGRGKGGKKKGKGREGAEEGEGGSRGRGEGGGKTGEGGRESRRRGE”, the “transcriptional activation domain activity” value was determined as 37600.
